From patent publication US20150045540A1 (published 2015)
Positions count from the first letter of the chain named.

B1: 4 (antibody, V domains shown)
V domain 1: FQPVLHQPPAMSSALGTTIRLTCTLRNDHDIGVYSVYWYQQRPGHPPRFLLRYFSQSDKSQGPQVPPRFSGSKDVARNRGYLSISELQPEDEAMYYCAMGARSSVTHVFGSGTQLTVLS
V domain 2: QPVLHQPPAMSSALGTTIRLTCTLRNDHDIGVYSVYWYQQRPGHPPRFLLRYFSQSDKSQGPQVPPRFSGSKDVARNRGYLSISELQPEDEAMYYCAMGARSSVTHVFGSGTQLTVLS
B2: 7 (antibody, V domains shown)
V domain 1: B1 V domain 1 with F1P
V domain 2: B1 V domain 2

Assays:
VEGF (Example 4) [1] = biological target: T1, VEGF (Example 4) (UniProt P15692 27-191); assay: VEGF-KDR inhibition
T1 chain: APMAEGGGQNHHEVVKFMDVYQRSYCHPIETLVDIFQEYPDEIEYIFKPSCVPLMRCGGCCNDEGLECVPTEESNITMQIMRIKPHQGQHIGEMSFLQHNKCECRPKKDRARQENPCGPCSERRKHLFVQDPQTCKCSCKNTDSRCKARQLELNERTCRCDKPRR

VEGF (Example 4) [2] = biological target: T1, VEGF (Example 4); assay: binding
ErbB3 = ErbB3 (UniProt P21860 20-643); assay: binding
Sequence of ErbB3 (P21860 20-643): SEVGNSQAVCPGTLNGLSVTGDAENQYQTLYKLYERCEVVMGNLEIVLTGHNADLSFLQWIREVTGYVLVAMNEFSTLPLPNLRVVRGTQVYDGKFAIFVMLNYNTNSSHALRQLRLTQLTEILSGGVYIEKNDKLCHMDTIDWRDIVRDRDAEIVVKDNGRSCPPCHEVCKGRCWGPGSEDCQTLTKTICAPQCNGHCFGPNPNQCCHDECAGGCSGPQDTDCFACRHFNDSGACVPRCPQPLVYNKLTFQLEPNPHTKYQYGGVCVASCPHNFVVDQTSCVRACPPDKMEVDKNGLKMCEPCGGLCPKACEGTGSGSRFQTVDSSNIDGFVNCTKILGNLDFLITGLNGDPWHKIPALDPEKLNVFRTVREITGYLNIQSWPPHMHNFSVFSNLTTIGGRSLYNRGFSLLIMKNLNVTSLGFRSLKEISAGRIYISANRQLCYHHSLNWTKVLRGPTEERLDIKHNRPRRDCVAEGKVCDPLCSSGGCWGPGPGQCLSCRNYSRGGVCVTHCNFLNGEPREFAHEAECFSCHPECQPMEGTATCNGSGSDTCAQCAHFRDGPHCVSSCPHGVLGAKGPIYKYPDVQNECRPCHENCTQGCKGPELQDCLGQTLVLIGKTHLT

| Binder | IC50 (VEGF (Example 4) [1]) [nM] | EC50 (VEGF (Example 4) [2]) [nM] | EC50 (ErbB3) [nM] |
| --- | --- | --- | --- |
| B1 | 0.449 | 0.015 | 0.046 |
| B2 | 0.362 | 0.013 | 0.037 |
